Target: enzyme recognising antibody fragments

B1: Human Gastric Lipase (protein)
chain: LFGKLHPGSPEVTMNISQMITYWGYPNEEYEVVTEDGYILEVNRIPYGKKNSGNTGQRPVVFLQHGLLASATNWISNLPNNSLAFILADAGYDVWLGNSRGNTWARRNLYYSPDSVEFWAFSFDEMAKYDLPATIDFIVKKTGQKQLHYVGHSQGTTIGFIAFSTNPSLAKRIKTFYALAPVATVKYTKSLINKLRFVPQSLFKFIFGDKIFYPHNFFDQFLATEVCSREMLNLLCSNALFIICGFDSKNFNTSRLDVYLSHNPAGTSVQNMFHWTQAVKSGKFQAYDWGSPVQNRMHYDQSQPPYYNVTAMNVPIAVWNGGKDLLADPQDVGLLLPKLPNLIYHKEIPFYNHLDFIWAMDAPQEVYNDIVSMISEDKK
B1 was tested. Which “enzyme activity assay (DGGR substrate)” value did it give?
The value was “Approximately 30 to 60% of the enzyme recognising antibody fragments showed to inhibit the enzyme”.

Source: patent US7361741
